According to the supplement of paper PMC12042874:
± gives the uncertainty stated by the source.

Assay: amyloid nucleation score (Sup35N fusion, yeast selection) (log enrichment); library NNK3; higher = more nucleation; inactive = no reads after selection
How it was run: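 DiMSum was used to calculate nucleation scores as log enrichment of output over input reads, centred on the mode score of non-aggregating sequences. Sequences with fewer than 100 input reads were not scored. Input and output came from Illumina sequencing of plasmid inserts in psi-negative yeast expressing peptides of 20 random codons fused to Sup35N, induced 24 hours with 100 μM copper sulfate and then grown 7 days at 30°C on medium lacking adenine and uracil.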
For QVYLVIV, the amyloid nucleation score was “inactive”. In the case of LGCREDFCERIGCVLRVMLE, the amyloid nucleation score is reported as “inactive”. With AREYMI the amyloid nucleation score was “inactive”. In the case of SPLSVGEHSEMWLRLVFG, the amyloid nucleation score is reported as “inactive”. With HWLFVVKMMKS the amyloid nucleation score was -0.093 ± 0.41. In the case of VRVSPLCIGRPALGQAIAVF, the amyloid nucleation score is reported as “inactive”. In the case of CWVVHGNNRVHGHMLGLRAI, the amyloid nucleation score is reported as “inactive”. For NMFSGVG, the amyloid nucleation score was “inactive”. With HAVLFSVDVSYYLVPALLFR the amyloid nucleation score was “inactive”. Substance YRSSDQDVTVIMCLLANYYN has an amyloid nucleation score of 2.37 ± 0.057. Substance FRSRRARGKNGIEMRILRHQ has an amyloid nucleation score of -0.109 ± 0.69. With DKWFMSVPIISTRICGGCLG the amyloid nucleation score was “inactive”. In the case of FFLTYTIECVGLNHMILSIM, the amyloid nucleation score is reported as “inactive”. For TADYDYQAEVCCLVIMCVHN, the amyloid nucleation score was “inactive”. With LWIPLWNVRKVYIIGQCLT the amyloid nucleation score was “inactive”. With NCRVMEISIGKAKQSWNFVM the amyloid nucleation score was “inactive”. For KIVFSKSLGFLVFVMRYNQW, the amyloid nucleation score was “inactive”. For GRDEQNHRFELVL, the amyloid nucleation score was “inactive”. In the case of HTFDDSTCSYTWVYFHIWCI, the amyloid nucleation score is reported as “inactive”. In the case of DYNSCCSEREVGKKEYTKNN, the amyloid nucleation score is reported as “inactive”. Substance GLHIRFQNYLRQGQ has an amyloid nucleation score of 1.22 ± 0.17. With YEYYGVKRCIVLG the amyloid nucleation score was “inactive”. LRIKMGIYAHDLCAVIMYTL gave an amyloid nucleation score of 0.515 ± 0.35. With MILNWARQRGIECMAYSRVW the amyloid nucleation score was “inactive”. In the case of LKARYYNYIASERSGCEFHK, the amyloid nucleation score is reported as “inactive”. For NVQRNVNAE, the amyloid nucleation score was “inactive”. With YFGFYSLWYKYYVTSISRSL the amyloid nucleation score was “inactive”. In the case of FRSAYDYNFC, the amyloid nucleation score is reported as “inactive”. With QLLLKT the amyloid nucleation score was “inactive”. In the case of GGLLWAKCVMLILYYVPMGL, the amyloid nucleation score is reported as “inactive”. In the case of MMYNVMVSSRLMRLCFSRRV, the amyloid nucleation score is reported as “inactive”. In the case of SIGWSMFDNSMVREIRTRTC, the amyloid nucleation score is reported as “inactive”. With TVFCLVKFRLEFYVTMPEYC the amyloid nucleation score was “inactive”. For TDLIIIRRPNFGKRGSGLGV, the amyloid nucleation score was “inactive”. With MSYINRAPFAMSGLFCAWFD the amyloid nucleation score was “inactive”. In the case of PDLLTRILERPGVSECFMQW, the amyloid nucleation score is reported as “inactive”. With DFPIGYHHNVMI the amyloid nucleation score was “inactive”. For LLAGQAIEIDVCAQGLKLKF, the amyloid nucleation score was -0.968 ± 1.8. In the case of GLGSFLRQRRACPSGGTQ, the amyloid nucleation score is reported as “inactive”. For TRLLVWSETIAVWVRLQN, the amyloid nucleation score was “inactive”. In the case of PDMSNIQTFWDSRVMGRTR, the amyloid nucleation score is reported as “inactive”. For LCVLPMSSTRGPHNICSTLL, the amyloid nucleation score was “inactive”. With PEMSSSGAKAKYPTSMTS the amyloid nucleation score was “inactive”. Work on KPVLVVVSNLIPWSYPE yielded an amyloid nucleation score of 2.25 ± 0.085. Substance TPMIVPLMNSQVVYTLFTTK has an amyloid nucleation score of 2.11 ± 0.076. For NYRRTCTVLSDGYFNYIT, the amyloid nucleation score was “inactive”. With QGFFGDNNAV the amyloid nucleation score was “inactive”. With VSCYSRYRVVVHRGSVVISR the amyloid nucleation score was “inactive”. Work on GNGIFGLSPR yielded an amyloid nucleation score of -1.04 ± 1.4. In the case of SPTLRFGRQKFRQCGVKRVS, the amyloid nucleation score is reported as 1.35 ± 0.11. For SYWSYSSTFSILLSDSFAIS, the amyloid nucleation score was “inactive”. ICIHLELRILCPHHAPDGSL showed an amyloid nucleation score of -0.118 ± 0.43. For TCSVCMGQVTMVIRYVNSNC, the amyloid nucleation score was “inactive”. For KSAWLRLCIVR, the amyloid nucleation score was “inactive”. With ITLLYALVLFFTWNVSG the amyloid nucleation score was “inactive”. With LEERLNFGKYAVGDGYTLV the amyloid nucleation score was “inactive”. In the case of RTVELEIHGLHV, the amyloid nucleation score is reported as “inactive”. In the case of LSLFSRSASFSSSLHMAMYH, the amyloid nucleation score is reported as “inactive”. In the case of FGFIILDLTR, the amyloid nucleation score is reported as “inactive”. With VDVYLDYDIAMQPGVYALWR the amyloid nucleation score was “inactive”. NIRWMFNLYACRLLRLVHF gave an amyloid nucleation score of 0.44 ± 0.23. In the case of RDNVFCVDVDICILVVR, the amyloid nucleation score is reported as “inactive”. With CTTDRGVVLWVCRNG the amyloid nucleation score was “inactive”. ALLTFILVLIVEVVNWRKVC gave an amyloid nucleation score of 0.961 ± 0.23. For QIVFIRPKNL, the amyloid nucleation score was “inactive”. For IISMPLGACMKAARMSF, the amyloid nucleation score was “inactive”. In the case of VKNIGS, the amyloid nucleation score is reported as “inactive”. In the case of LNTCNVFKYFVSGKRFREVG, the amyloid nucleation score is reported as “inactive”. With PSHIGLL the amyloid nucleation score was “inactive”. In the case of SARSGAAISTSSNKVTPVYT, the amyloid nucleation score is reported as “inactive”. In the case of RIVMPLSVSFMPQVKHPMYR, the amyloid nucleation score is reported as “inactive”. For WKYRSKRWMMLSASVRLYSS, the amyloid nucleation score was “inactive”. For CSSSYMGQDHVFVSDSARCS, the amyloid nucleation score was “inactive”. In the case of GIVNYRPAYP, the amyloid nucleation score is reported as “inactive”. For LSLSM, the amyloid nucleation score was “inactive”. In the case of TNTNFSVRFRTTKWMAKRRA, the amyloid nucleation score is reported as 1.4 ± 0.11. In the case of VVSAGIAFPWTGLS, the amyloid nucleation score is reported as “inactive”. For KGFFFCRTYVSSFWTKIGIF, the amyloid nucleation score was “inactive”. Work on FTYTEMRLGIKFSTWRQ yielded an amyloid nucleation score of 1.03 ± 0.14. In the case of SCFKDDCVGLLYYQSWSNDS, the amyloid nucleation score is reported as 0.501 ± 0.33.
